Assay results taken from publication PMC5577609.
One block for each substance: values may come before it.

Tests used:
[1] = molecular target: influenza virus envelope glycoprotein hemagglutinin (influenza virus (strain not stated for the immobilised hemagglutinin)); test: SPR; Biacore X100; […], HBS-N (10 mM HEPES, 150 mM NaCl, pH 7.4); […], dissociation 600 s; Langmuir 1:1 fit
[2] = molecular target: Halimeda renschii lectin HRL40 (Halimeda renschii); test: SDS-PAGE, non-reducing and reducing; 12% gel; samples heated at 100 C in 0.2% SDS with or without 2% 2-mercaptoethanol; about 40 kDa non-reduced, 10 kDa reduced
[3] = molecular target: HRL40-1 (isolectin of Halimeda renschii lectin HRL40) (Halimeda renschii); test: LC-ESI-MS of the intact and of the reduced, S-pyridylethylated protein; LTQ Orbitrap XL; intact isolectin against the subunit mass derived after reduction with tri-n-butylphosphine and alkylation with 4-vinylpyridine

Substance: Halimeda renschii lectin HRL40 (natural protein)
Ka [1]: 2.71e+10 M⁻¹
Kd [1]: 0.0369 nM
koff [1]: 2.63e-06 s⁻¹
kon [1]: 71400 M⁻¹ s⁻¹
stoichiometry N [2]: 4

stoichiometry N [3]: 4
Substance: HRL40-1 (isolectin of Halimeda renschii lectin HRL40) (natural protein)
